According to paper doi:10.1101/2021.10.28.465226:

Biological target: SARS-CoV-2 spike heptad repeat 1 (HR1) with C-terminal poly-his tag (SARS-CoV-2)
Experiment: SPR

SARS-CoV-2 spike heptad repeat 2 (HR2) peptide
Kd: 2.24 nM
